Data published in patent US20150307600A1.

Target: synthetic biotinylated and pegylated phospho-tau peptide RSGYSSPG(pS)PG(pT)PGSRSR-OH (human)
Test: MSD electrochemiluminescence competition on the biotinylated phospho-tau peptide (SEQ ID NO:39) coated on streptavidin plates; competitor: SULFO-TAG-labelled AT8

IC50 (read off the curve): 40 nM
Substance: AT8 anti-tau antibody (ThermoScientific, Rockford, Ill.)
